In PMC3406025, “Structure and Binding Interface of the Cytosolic Tails of αXβ2 Integrin” (PLoS ONE, 2012):

B1: cytosolic tail (CT) of integrin β2 (residues K724-S769) (domain or fragment, UniProt P05107 724-769, looked up)
chain: KALIHLSDLREYRRFEKEKLKSQWNNDNPLFKSATTTVMNPKFAES
notes: integrin β2 (CD18) cytosolic tail, residues K724-S769; Used 15N-labelled in one direction of the titration and unlabelled in the other; also called β2 CT; CT of β2; source: E. coli BL21DE3, KSI fusion in inclusion bodies, purified (Ni-NTA in 8 M urea, cyanogen bromide cleavage, HPLC); not shown: ketosteroid isomerase (KSI), N-terminal, cleaved
B2: cytosolic tail (CT) of integrin αX (residues K1129-K1163) (domain or fragment, UniProt P20702 1129-1163, looked up)
chain: KVGFFKRQYKEMMEEANGQIAPENGTQTPSPPSEK
notes: integrin αX (CD11c) cytosolic tail, residues K1129-K1163, 35 residues; Used 15N-labelled in one direction of the titration and unlabelled in the other; A GGGGSDP linker lay between KSI and the tail, and formic acid cleaves at the Asp-Pro site, so a Pro may remain at the N-terminus (surmised); The myristoylated synthetic αX CT (GL Biochem) was used only for the structure in DPC micelles, not for …

What was measured:
[1] = molecular target: B2; assay: NMR titration; 15N-1H HSQC; 15N-labelled CT titrated with the unlabelled cognate CT up to two times its concentration (1:2); 10 mM sodium phosphate buffer, pH 6.5, aqueous solution; done in both directions; conditions: both partners purified
[2] = molecular target: B1; assay: as above; conditions: both partners purified

Row | Binder | binding result [1] | binding result [2]
1 | B1 | binds | 
2 | B2 |  | binds
